kcat/Km data for two proteins are collected here from US8357518B2, “Thermostable enzymes for the hydrolysis of mannan-containing polysaccharides” (The Board of Trustees of the University of Illinois, priority 2010, dated 2013).

Substrate in data set [1]: O=[N+]([O-])c1ccc(O[C@@H]2O[C@H](CO)[C@@H](O)[C@H](O)[C@@H]2O)cc1
Kind of data set: Catalytic efficiency with pNP-linked sugars (Man5A-TM2). Type of data set: biochemical, Caldanaerobius polysaccharolyticus. The following applies: other: Man5A-TM2, pNP substrates, citrate buffer 50 mM, pH 5.5, 65° C., triplicate. The method, then: (§1) The plasmid constructs were then introduced into E. coli BL-21 CodonPlus (DE3) RIL competent cells by heat shock, and grown overnight in lysogeny broth (LB) agar medium supplemented with ampicillin (100 μg/mL) and chloramphenicol (50 μg/mL) at 37° C. After 12 h, single colonies were selected and used to inoculate fresh LB (10 mL) supplemented with the antibiotics above at the same concentrations, followed by culturing with aeration for 8 h at 37° C. The pre-cultures were then inoculated into fresh LB (1 L) supplemented with ampicillin and chloramphenicol and the cultures were incubated at 37° C. with vigorous aeration (225 rpm/min). […] Aliquots of eluted fractions were analyzed by sodium dodecyl sulfate-polyacrylamide gel electrophoresis (SDS-PAGE) and protein bands were visualized by staining with Coomassie brilliant blue G-250. […] The UV absorbances of the protein solutions were recorded at 280 nm using a Nanoprop 1000 from Thermo Scientific (Waltham, Mass.) and the protein concentrations were calculated using the following extinction coefficients: Man5A-TM1, ε280 nm=189 mM^−1 cm^−1; Man5A-TM2, ε280 nm=113 mM^−1 cm^−1; Man5B, ε280 nm=103 mM^−1 cm^−1.
(§2) Hydrolysis of para-nitrophenyl (pNP) linked sugars. […] The extinction coefficient of pNP at pH 5.5 was determined as 1636 M^−1 cm^−1.

Substrate in data set [2]: O=[N+]([O-])c1ccc(O[C@@H]2O[C@H](CO)[C@@H](O[C@@H]3O[C@H](CO)[C@@H](O)[C@H](O)[C@H]3O)[C@H](O)[C@H]2O)cc1
Described as above. In kind it is biochemical, Caldanaerobius polysaccharolyticus. The following applies: other: Man5A-TM2, pNP substrates, citrate buffer 50 mM, pH 5.5, 65° C., triplicate. The method, then:
as §1, §2

Substrate in data set [3]: OC[C@H]1O[C@@H](O[C@H]2[C@H](O)[C@@H](O)[C@H](O[C@H]3[C@H](O)[C@@H](O)[C@H](O[C@H]4[C@H](O)[C@@H](O)C(O)O[C@@H]4CO)O[C@@H]3CO)O[C@@H]2CO)[C@H](O)[C@@H](O)[C@@H]1O
Nature of the data set: purified protein, by the assay type. The following applies: other: Man5B 3 nM, oligosaccharide 30 μM, citrate buffer 50 mM, pH 5.5, 5 min, triplicate.

Substrate in data set [4]: OC[C@H]1O[C@@H](O[C@H]2[C@H](O)[C@@H](O)[C@H](O[C@H]3[C@H](O)[C@@H](O)C(O)O[C@@H]3CO)O[C@@H]2CO)[C@H](O)[C@@H](O)[C@@H]1O
Nature of the data set: purified protein, by the assay type. The following applies: other: Man5B 3 nM, oligosaccharide 30 μM, citrate buffer 50 mM, pH 5.5, 5 min, triplicate.

Substrate in data set [5]: OC[C@H]1O[C@@H](O[C@H]2[C@H](O)[C@H](O)[C@H](O[C@H]3[C@H](O)[C@H](O)[C@H](O[C@H]4[C@H](O)[C@H](O)[C@H](O[C@H]5[C@H](O)[C@H](O)[C@H](O[C@H]6[C@H](O)[C@H](O)C(O)O[C@@H]6CO)O[C@@H]5CO)O[C@@H]4CO)O[C@@H]3CO)O[C@@H]2CO)[C@@H](O)[C@@H](O)[C@@H]1O
Nature of the data set: purified protein, by the assay type. The following applies: other: Man5B 3 nM, oligosaccharide 30 μM, citrate buffer 50 mM, pH 5.5, 5 min, triplicate.

Substrate in data set [6]: OC[C@H]1O[C@@H](O[C@H]2[C@H](O)[C@@H](O)[C@H](O[C@H]3[C@H](O)[C@@H](O)[C@H](O[C@H]4[C@H](O)[C@@H](O)[C@H](O[C@H]5[C@H](O)[C@@H](O)[C@H](O[C@H]6[C@H](O)[C@@H](O)C(O)O[C@@H]6CO)O[C@@H]5CO)O[C@@H]4CO)O[C@@H]3CO)O[C@@H]2CO)[C@H](O)[C@@H](O)[C@@H]1O
Nature of the data set: purified protein, by the assay type. The following applies: other: Man5B 3 nM, oligosaccharide 30 μM, citrate buffer 50 mM, pH 5.5, 5 min, triplicate.

Substrate in data set [7]: OC[C@H]1O[C@@H](O[C@H]2[C@H](O)[C@H](O)[C@H](O[C@H]3[C@H](O)[C@H](O)[C@H](O[C@H]4[C@H](O)[C@H](O)C(O)O[C@@H]4CO)O[C@@H]3CO)O[C@@H]2CO)[C@@H](O)[C@@H](O)[C@@H]1O
Kind of data set: purified protein, by the assay type. The following applies: other: Man5B 3 nM, oligosaccharide 30 μM, citrate buffer 50 mM, pH 5.5, 5 min, triplicate.

B1: Caldanaerobius polysaccharolyticus endo-β-mannanase Man5A truncation mutant Man5A-TM2, SEQ ID NO: 29 (Caldanaerobius polysaccharolyticus) (protein)
chain: AGTSGDGRFHVVGNKIVDPDGKDFIIKGVNIQGYRSWEKRSVLQDVHLIADVWKFNTVRLNCFIGQNNWGEGTGANNDIDAIIKAFTAKKVVVEIDLHDTTGYPPLSNPPPAPGQPSLDQAIAWFKELAAKYKDNPYVWFNTMNEPGSSTAPLDPQWKVANEEIIKAIRSTGADNIIVVDGWSYANEGIEQNTPTVDEKRSAVLTYGQDLLNADSAKNTIFAFHNYNEGDIQKKVEDYIDRANAKGLYVFMEEYGKDYSDAAKEGVKSGLQAVMNKGAGRIYWNWDGYDLYDLTSGTGRGSGWEINKTDGSKPTNLSWVGDKIWDDNHGITPTFDDQNPKVDLALERLIANNNGFKAGDKVQFTTFLRNSGDLPIGKDSKVVVKFYVDGVQLGDPVEISGGIAVGQRIPVTSPELTVSKTDFTVKAVIDSSSTYADGAEDAVIENNWIEAAFNSTAPSSGYELVVTGIKITPDTVKEGDYVQAQVTVANQGPEATPVTNIIGWFYVNGYYYTLDDAAKSCAEQDNVTLKPGESITLSTKVKYRAAAPFNFSFVLENLYADDQNQSNNSITVNVPVK
Consider B1, for which the specificity constant (kcat/Km) result in data set [1] is recorded as “(1.1 ± 0.2) × 10^−2 mM^−1 s^−1”; in data set [2], “(2.5 ± 0.3) × 10^−2 mM^−1 s^−1”.

B2: Caldanaerobius polysaccharolyticus endo-β-mannanase Man5B, wild type, SEQ ID NO: 31 (Caldanaerobius polysaccharolyticus) (protein)
chain: MKKYGFNFQWMYVWEEGREPEPPDKKALDFLAETGFNFVRIPVDYRFWTRNFDYFNPDKKVFEYIDLYLRECSARNIHMCLNLHRAPGYCINRNDIERDNLWLDKRAQDGFVYQWELFAKRYKGVSSKFLSFDLVNEPPNIGQYGLTRENHASLIIRTVEAIRKIDPDREIVIDGLGGGNIAMPELAHLGVVHSGRGYQPMALTHYQASWWDGHKGLPEPYYPDLLWQGKVWNKDTLREYYKPWRDLQQKGVNVHIGEFGCFNKTSNDVAIRWFEDVLSLYKEFEWGYSLWNFKGPFGIVEHGRPGAKYEYYRGFKVDRELLDLLVENRV
With B2, the specificity constant (kcat/Km) in data set [3] was 1400 ± 200 M⁻¹ s⁻¹; in data set [4] it was 1000 ± 70 M⁻¹ s⁻¹; in data set [5], “(2.7 ± 0.7) × 10^2 mM^−1 s^−1”; in data set [6], 43000 ± 3000 M⁻¹ s⁻¹; in data set [7], 63000 ± 6000 M⁻¹ s⁻¹.
